Measurements from patent US10632208B2, “Peptide-mediated drug delivery across epithelial barrier” (Purdue Research Foundation, priority 2017, dated 2020).

What was measured:
[1] = system: NF-κB(p65); test: Immunoblot of NF-κB activation in Caco-2 cytoplasmic and nuclear extracts; assay type: cell-based, human; details: LAP 1000 ng/mL or TNF-α 10 ng/mL
Description: To extract the proteins from Caco-2 cells, cells were seeded in 6-well plates for 14-21 days. Following treatment, the cells were washed, scraped from the bottom of 6-well plates, suspended in PBS, and pelleted by centrifugation. Total protein from Caco-2 cells was extracted using the M-PER Extraction Kit (Thermo Fisher Scientific). Detergent-insoluble (membrane) and detergent-soluble (cytosolic) proteins were isolated using a Mem-Per Eukaryotic Protein Extraction Kit (Thermo Fisher Scientific) while the cytosolic and nuclear proteins were extracted using NE-PER Extraction Reagent (Thermo Fisher Scientific). To extract proteins from ileal epithelial cells, the epithelial cell fraction from ileal tissues were isolated as described above and the detergent-insoluble and the detergent-soluble proteins were isolated using a Mem-Per Eukaryotic Protein Extraction Kit.
To extract total protein from intact bacterial cells, sample solvent buffer and sonication (3 cycles of […]) were used. To isolate the cell wall-associated proteins bacterial pellets were resuspended in 0.5 ml protein extraction buffer (0.5% SDS, 10 mM Tris at pH 6.9), and incubated at 37° C. for 30 min with agitation. The samples were centrifuged (14,000×g, 10 min, 4° C.), and the supernatants (containing cell wall-associated proteins) were retained. Halt proteases and phosphatase inhibitors (Thermo Fisher Scientific) were used during all of the protein extraction procedures. The protein concentrations were determined by BCA assay (Thermo Fisher Scientific), and separated on SDS-PAGE gels (10-12.5% polyacrylamide) and electro-transferred to polyvinylidene difluoride (PVDF) membrane (Millipore). The membranes were then blocked in 5% nonfat dry milk (NFDM) in 0.1 M Tris-buffered saline, pH 7.5 (TBS) containing 0.1% Tween 20 (TBST) for at least 1 h. All of the primary antibodies were diluted in 5% bovine serum albumin (BSA) or 5% NFDM in TBST and incubated overnight. Secondary antibodies (1:2000 in 5% NFDM in TBST) incubated for 1 h at 37° C., and a chemiluminescence method was performed using LumiGLO reagent (Cell Signaling). The membranes were exposed to X-ray films or visualized using the Chemi-Doc XRS system (Bio-Rad). To immunoprobe the same membrane with another antibody, the originally bound antibodies from the membranes were removed by incubating the membranes in Restore Western Blot Stripping Buffer (Thermo Fisher Scientific) according to the manufacturer's protocol. To compare the reaction intensities, the average band densities were determined using Quantity One software (Bio-Rad). Densitometry reports represent the mean±SEM after normalization to the loading control and is presented as % change of protein with the average for untreated cells (control) set at 100%. Immunoblots and densitometric reports are representative of 2-3 independent experiments.

[2] = system: NF-κB(p65); test: Confocal immunofluorescence of p65 localization in Caco-2 cells; assay type: cell-based, human; details: 30 min
Description: For antibody labeling in cells, Caco-2 cells, were grown to 40-50% confluence in four-chambered slides (Millipore). At the end of the treatment, the cells were fixed with 3.7% formaldehyde in PBS for 20 min and permeabilized and blocked with PBS containing 0.3% Triton X-100 and 3% BSA (Sigma-Aldrich) for 1 h at room temperature and then incubated with respective antibodies overnight at 4° C. Following antibody incubation, the cells were washed with PBS (3 cycles, 5 min) and incubated with FITC or Alexa Fluor 555-conjugated secondary antibody for 2 h at room temperature. The nuclei were stained with DAPI (500 ng/ml; Cell signaling) and slides were mounted in ProLong antifade reagent (Cell Signaling).
All images were acquired using a Nikon A1R MP Multiphoton (Nikon) Confocal fluorescence microscope using a 60× oil immersion objective equipped with the Nikon Elements software (Nikon) at the Purdue Bioscience Imaging Facility. The X-Z and Y-Z cross-sections were produced by orthogonal reconstructions from z-stack scanning at 0.15 μm intervals taken with 60× objective in 5 μm thick paraffin embedded tissue section. Three-dimensional reconstructions were performed using Nikon elements software (Nikon).

[3] = system: NF-κB; test: NF-κB luciferase reporter assay in RAW 264.7 cells; assay type: cell-based, murine; details: for NF-κB activation by LAP domains (luciferase activity): 1 μg/mL each, 6 h; for NF-κB activation: purified proteins, LPS positive control
Description: The NF-κB Luciferase reporter RAW 264.7 cell line (Novus Biologicals), which expresses an optimized Renilla luciferase reporter gene (RenSP) under the transcriptional control of an NF-κB response element, was used. The cells were seeded (1×10^5 cells/well) into 96-well luminometer-compatible plates for 16 h and then treated with analytes for 6 h. Media from each well were aspirated, and then 100 μL of ice-cold PBS was added to each well. The plates were then frozen solid at −80° C. overnight to completely lyse the cells, thawed back to room temperature, and luciferase assays were performed using the LightSwitch Luciferase assay kit (Novus Biologicals). Luminescence was measured as the relative luminescence units (RLU) using Spectramax (Spectramax, Molecular Devices) and reported as the relative fold change compared with that of the control cells that were treated with media alone. Recombinant human or mouse TNF-α (R&D Systems) and polymyxin B, LPS (E. coli Serotype R515, Re, TLR grade), and proteinase K (each from Sigma-Aldrich) were used.

TNF-α [reference compound] was tested, and the “time of appearance of cytoplasmic phospho-IκBα (Ser32)” value [1] was 15 min, the “time of increase in nuclear p65 and P-p65” value [1] was 30 min and the “localization of p65” value ([2]; Caco-2 cells, LAP 1 μg/mL or TNF-α 10 ng/mL) was “in the nucleus”. For the same molecule, the “localization of p65” value ([2]; Hsp60 knocked-down Caco-2 cells) was “slight reduction in the nuclear translocation of p65”.

B1: N1: LAP fragment N1 (Met1-Pro223); histidine-tagged form SEQ ID NO: 7 (protein)
chain: MAIKENAAQEVLEVQKVIDRLADNGQKALKAFESYNQEQVDNIVHAMALAGLDQHMPLAKLAVEETGRGLYEDKCIKNIFATEYIWNNIKNNKTVGVINEDVQTGVIEIAEPVGVVAGVTPVTNPTSTTLFKAIIAIKTRNPIIFAFHPSAQRCSSAAAKVVYDAAIAAGAPEHCIQWVEKPSLEATKQLMNHDKVALVLATGGAGMVKSAYSTGKPALGVGP
modifications: Listeria Adhesion Protein N1 domain
B1 was tested, and the “NF-κB activation by LAP domains (luciferase activity)” value (shortened to “NF-κB activation by LAP domains”) [3] was “activity similar to the untreated control cells”.

B2: InlA: purified recombinant InlA, Listeria surface protein Internalin A (protein)
chain: ATITQDTPINQIFTDTALAEKMKTVLGKTNVTDTVSQTDLDQVTTLQADRLGIKSIDGVEYLNNLTQINFSNNQLTDITPLKNLTKLVDILMNNNQIADITPLANLTNLTGLTLFNNQITDIDPLKNLTNLNRLELSSNTISDISALSGLTSLQQLSFGNQVTDLKPLANLTTLERLDISSNKVSDISVLAKLTNLESLIATNNQISDITPLGILTNLDELSLNGNQLKDIGTLASLTNLTDLDLANNQISNLAPLSGLTKLTELKLGANQISNISPLAGLTALTNLELNENQLEDISPISNLKNLTYLTLYFNNISDISPVSSLTKLQRLFFYNNKVSDVSSLANLTNINWLSAGHNQISDLTPLANLTRITQLGLNDQAWTNAPVNYKANVSIPNTVKNVTGALIAPATISDGGSYTEPDITWNLPSYTNEVSYTFSQPVTIGKGTTTFSGTVTQPLKAIFNVKFHVDGKETTKEVEAGNLLTEPAKPVKEGHTFVGWFDAQTGGTKWNFSTDKMPTNDINLYAQFSINSYTATFDNDGVTTSQTVDYQGLLQEPTAPTKEGYTFKGWYDAKTGGDKWDFATSKMPAKNITLYAQYSANSYTATFDVDGKSTTQAVDYQGLLKEPKAPTKAGYTFKGWYDEKTDGKKWDFATDKMPANDITLYAQFTKNPVAPPTTGGNTPPTTNNGGNTTPPSANIPGSDTSNTSTGNSASTTSTMNAYDPYNSKEASLPTT
For B2, the NF-κB activation [3] was “neutral”.

B3: C2: LAP fragment C2 (Pro649-Val866); histidine-tagged form SEQ ID NO: 9 (protein)
chain: PAHITADTGMDVLTHAIESYVSVMASDYTRGLSIRAIELVFENLRESVLTGDPDAREKMHNASALAGMAFANAFLGINHSLAHKIGPEFHIPHGRANAILMPHVIRYNALKPKKHALFPRYESFRADEDYARISRIIGFPAATTEEGVKSLVDEIIKLGKDVGIDMSLKGQNVAKKDLDAVVDTLADRAFMDQCTTANPKQPLVSELKEIYLEAYKGV
modifications: Listeria Adhesion Protein C2 domain
B3 was tested, and the “NF-κB activation by LAP domains” value [3] was “activity similar to the untreated control cells”.

B4: InlB: purified recombinant InlB protein of Listeria (protein, UniProt P0DQD2 31-630, looked up)
Internalin B: AKVQAETITVPTPIKQIFSDDAFAETIKDNLKKKSVTDAVTQNELNSIDQIIANNSDIKSVQGIQYLPNVTKLFLNGNKLTDIKPLANLKNLGWLFLDENKVKDLSSLKDLKKLKSLSLEHNGISDINGLVHLPQLESLYLGNNKITDITVLSRLTKLDTLSLEDNQISDIVPLAGLTKLQNLYLSKNHISDLRALAGLKNLDVLELFSQECLNKPINHQSNLVVPNTVKNTDGSLVTPEIISDDGDYEKPNVKWHLPEFTNEVSFIFYQPVTIGKAKARFHGRVTQPLKEVYTVSYDVDGTVIKTKVEAGTRITAPKPPTKQGYVFKGWYTEKNGGHEWNFNTDYMSGNDFTLYAVFKAETTEKAVNLTRYVKYIRGNAGIYKLPREDNSLKQGTLASHRCKALTVDREARNGGKLWYRLKNIGWTKAENLSLDRYDKMEYDKGVTAYARVRNASGNSVWTKPYNTAGAKHVNKLSVYQGKNMRILREAKTPITTWYQFSIGGKVIGWVDTRALNTFYKQSMEKPTRLTRYVSANKAGESYYKVPVADNPVKRGTLAKYKNQKLIVDCQATIEGQLWYRIRTSSTFIGWTKAANLRAQK
With B4 the “NF-κB activation ability after polymyxin-B treatment” value [3] was “retained the NF-κB activation ability”, the “NF-κB activation after proteinase-K treatment” value [3] was “abolished” and the “NF-κB activation ability after heat treatment” value ([3]; 100° C., 10 min) was “abolished the NF-κB activation ability”. The NF-κB activation [3] was “activated NF-κB”.

B5: C1: LAP fragment C1 (Gly412-Val648); histidine-tagged form SEQ ID NO: 8 (protein)
chain: GGIGDIYNGFIPSLTLGCGSYGKNSVSQNVSATNLLNVKRIADRRNNMQWFKLPPKIFFEKYSTQYLQKMEGVERVFIVTDPGMGSFKYVDVVIEHLKKRGNDVAYQVFADVEPDPSDVTVYKGAELMKDFKPDTIIALGGGSAMDAAKGMWLFYEHPEASFFGLKQKFLDIRKRTFKYPKLGGKAKFVAIPTTSGTGSEVTPFAVITDKENNIKYPLADYELTPDVAIVDAQYVTTV
modifications: Listeria Adhesion Protein C1 domain
B5 was tested, and the “NF-κB activation by LAP domains” value [3] was “activity similar to the untreated control cells”.

B6: N2: LAP fragment N2 (Gly224-Gly411); histidine-tagged form SEQ ID NO: 3 (protein)
chain: GNVPAYIDKTAKIKRSVNDIILSKSFDQGMICASEQAVIVDKEVAKEVKAEMEANKCYFVKGAEFKKLESYVINPEKGTLNPDVVGKSPAWIANQAGFKVPEDTKILVAEIKGVGDKYPLSHEKLSPVLAFIEAANQAEAFDRCEEMLVYGGLGHSAVIHSTDKEVQKAFGIRMKACRIIVNAPSAQG
modifications: Listeria Adhesion Protein N2 domain
B6 was tested, and the “NF-κB activation by LAP domains” value [3] was “activated NF-κB nearly as effectively as the full-length LAP”.
